{
  "source": "paper PMC3985291",
  "about": "(Cell reports, 2014)",
  "binders": {"B1": {"name": "Marburg virus VP24 (recombinant, used for ITC) (natural protein)", "chain": "MAELSTRYNLPANVTENSINLDLNSTARWIKEPSVGGWTVKWGNFVFHIPNTGMTLLHHLKSNFVVPEWQQTRNLFSHLFKNPKSTIIEPFLALRILLGVALKDQELQQSLIPGFRSIVHMLSEWLLLEVTSAIHISPNLLGIYLTSDMFKILMAGVKNFFNKMFTLHVVNDHGKPSSIEIKLTGQQIIITRVNMGFLVEVRRIDIEPCCGETVLSESVVFGLVAEAVLREHSQMEKGQPLNLTQYMNSKIAI"}},
  "molecular_target": "Keap1 Kelch domain (recombinant) (human, UniProt Q14145 321-609)",
  "sequence (Q14145 321-609)": "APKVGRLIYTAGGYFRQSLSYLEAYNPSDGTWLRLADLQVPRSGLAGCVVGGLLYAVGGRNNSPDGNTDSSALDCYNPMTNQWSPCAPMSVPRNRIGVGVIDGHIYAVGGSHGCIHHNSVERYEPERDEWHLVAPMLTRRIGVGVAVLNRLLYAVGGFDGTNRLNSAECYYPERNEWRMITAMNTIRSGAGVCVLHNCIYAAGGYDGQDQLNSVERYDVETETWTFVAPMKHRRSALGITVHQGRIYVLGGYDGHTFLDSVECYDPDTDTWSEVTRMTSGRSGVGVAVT",
  "assay": "ITC",
  "data": [
    {"binder": "B1", "values": [
      {"measurement": "Kd", "result": "158 ± 20", "unit": "nM"}
    ]}
  ]
}
